Earlier results on one substance are cited in paper PMC4489983.

The target in data set [1] is spinophilin (Homo sapiens) (UniProt Q96SB3).
For another data set, the target named is NIPP1 (Homo sapiens) (UniProt Q12972).
A further data set concerns the target PNUTS (Homo sapiens) (UniProt Q96QC0).

PP1α, sequence (P62136 2-330): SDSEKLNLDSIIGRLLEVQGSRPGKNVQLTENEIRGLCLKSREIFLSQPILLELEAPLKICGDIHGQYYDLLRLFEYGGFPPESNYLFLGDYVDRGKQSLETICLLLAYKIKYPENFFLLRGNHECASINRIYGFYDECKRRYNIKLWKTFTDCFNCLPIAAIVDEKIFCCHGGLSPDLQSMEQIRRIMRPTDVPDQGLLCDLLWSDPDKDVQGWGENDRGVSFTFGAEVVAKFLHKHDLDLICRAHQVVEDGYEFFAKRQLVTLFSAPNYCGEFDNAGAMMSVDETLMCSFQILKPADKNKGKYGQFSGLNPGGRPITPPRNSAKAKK
PNUTS (Homo sapiens), sequence (Q96QC0 whole entry): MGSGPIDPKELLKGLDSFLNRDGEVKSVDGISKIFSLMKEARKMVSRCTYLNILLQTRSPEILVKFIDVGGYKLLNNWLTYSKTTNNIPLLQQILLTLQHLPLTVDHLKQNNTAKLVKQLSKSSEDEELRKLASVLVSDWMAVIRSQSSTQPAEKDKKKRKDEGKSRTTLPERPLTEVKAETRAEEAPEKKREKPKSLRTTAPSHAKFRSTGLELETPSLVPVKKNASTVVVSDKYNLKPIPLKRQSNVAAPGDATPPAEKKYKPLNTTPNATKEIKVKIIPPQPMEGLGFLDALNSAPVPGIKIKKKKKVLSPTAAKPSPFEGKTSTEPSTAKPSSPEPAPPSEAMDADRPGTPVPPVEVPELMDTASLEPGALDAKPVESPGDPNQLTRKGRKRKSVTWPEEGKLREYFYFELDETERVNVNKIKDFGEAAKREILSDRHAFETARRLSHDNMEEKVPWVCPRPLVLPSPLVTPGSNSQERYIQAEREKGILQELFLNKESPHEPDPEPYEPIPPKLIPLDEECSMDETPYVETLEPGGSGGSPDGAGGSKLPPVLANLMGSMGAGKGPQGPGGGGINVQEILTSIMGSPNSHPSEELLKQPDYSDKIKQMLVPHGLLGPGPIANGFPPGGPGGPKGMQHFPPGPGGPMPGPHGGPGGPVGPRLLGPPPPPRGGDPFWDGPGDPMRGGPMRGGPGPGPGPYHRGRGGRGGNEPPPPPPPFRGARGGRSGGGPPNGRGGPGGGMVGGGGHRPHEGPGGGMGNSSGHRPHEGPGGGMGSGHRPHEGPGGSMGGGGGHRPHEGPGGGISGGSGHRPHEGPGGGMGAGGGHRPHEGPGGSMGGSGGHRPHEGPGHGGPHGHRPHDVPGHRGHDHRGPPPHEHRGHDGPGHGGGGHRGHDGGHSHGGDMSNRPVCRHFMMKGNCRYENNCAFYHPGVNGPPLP
spinophilin (Homo sapiens), sequence (Q96SB3 whole entry): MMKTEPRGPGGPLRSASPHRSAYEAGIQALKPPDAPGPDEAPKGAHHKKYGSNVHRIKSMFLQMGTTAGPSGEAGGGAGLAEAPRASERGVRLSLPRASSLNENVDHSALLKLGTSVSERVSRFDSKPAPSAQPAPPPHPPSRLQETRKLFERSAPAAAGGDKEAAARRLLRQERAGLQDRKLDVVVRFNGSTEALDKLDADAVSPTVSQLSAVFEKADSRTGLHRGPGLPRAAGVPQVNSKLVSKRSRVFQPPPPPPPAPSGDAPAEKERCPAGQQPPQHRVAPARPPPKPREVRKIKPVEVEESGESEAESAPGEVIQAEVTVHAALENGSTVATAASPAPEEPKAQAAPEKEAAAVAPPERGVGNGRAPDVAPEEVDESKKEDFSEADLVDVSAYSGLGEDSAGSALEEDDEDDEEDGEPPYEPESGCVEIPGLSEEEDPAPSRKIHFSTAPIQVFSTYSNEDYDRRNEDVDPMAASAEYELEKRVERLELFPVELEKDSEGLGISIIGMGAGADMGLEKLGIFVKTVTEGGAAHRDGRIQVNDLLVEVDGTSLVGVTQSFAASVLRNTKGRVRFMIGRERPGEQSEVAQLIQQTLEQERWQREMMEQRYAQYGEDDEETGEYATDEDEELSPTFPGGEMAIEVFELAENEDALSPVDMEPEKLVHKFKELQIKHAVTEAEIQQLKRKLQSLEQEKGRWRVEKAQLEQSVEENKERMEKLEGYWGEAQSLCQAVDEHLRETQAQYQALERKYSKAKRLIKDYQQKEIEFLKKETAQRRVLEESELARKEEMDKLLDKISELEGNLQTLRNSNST
NIPP1 (Homo sapiens), sequence (Q12972 whole entry): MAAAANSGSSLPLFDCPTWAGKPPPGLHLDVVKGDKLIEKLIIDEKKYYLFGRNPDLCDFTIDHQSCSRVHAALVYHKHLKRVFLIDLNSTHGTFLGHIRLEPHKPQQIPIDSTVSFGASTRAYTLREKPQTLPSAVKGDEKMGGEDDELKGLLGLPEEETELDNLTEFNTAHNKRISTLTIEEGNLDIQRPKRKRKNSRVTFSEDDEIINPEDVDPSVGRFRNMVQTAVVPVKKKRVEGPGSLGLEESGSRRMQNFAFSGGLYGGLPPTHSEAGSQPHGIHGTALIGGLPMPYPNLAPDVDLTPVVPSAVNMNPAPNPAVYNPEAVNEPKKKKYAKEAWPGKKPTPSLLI

Take PP1α (from UniProt P62136): the Kd is 9.3 nM in data set [1], 73 nM with NIPP1 (Homo sapiens) and 8.7 nM in the data set with PNUTS (Homo sapiens).
